Earlier results, collected in publication PMC4769797.

Molecular target: VEGFR1 (Homo sapiens) (UniProt P17948)
Chain of UniProt P17948 (P17948 27-1338): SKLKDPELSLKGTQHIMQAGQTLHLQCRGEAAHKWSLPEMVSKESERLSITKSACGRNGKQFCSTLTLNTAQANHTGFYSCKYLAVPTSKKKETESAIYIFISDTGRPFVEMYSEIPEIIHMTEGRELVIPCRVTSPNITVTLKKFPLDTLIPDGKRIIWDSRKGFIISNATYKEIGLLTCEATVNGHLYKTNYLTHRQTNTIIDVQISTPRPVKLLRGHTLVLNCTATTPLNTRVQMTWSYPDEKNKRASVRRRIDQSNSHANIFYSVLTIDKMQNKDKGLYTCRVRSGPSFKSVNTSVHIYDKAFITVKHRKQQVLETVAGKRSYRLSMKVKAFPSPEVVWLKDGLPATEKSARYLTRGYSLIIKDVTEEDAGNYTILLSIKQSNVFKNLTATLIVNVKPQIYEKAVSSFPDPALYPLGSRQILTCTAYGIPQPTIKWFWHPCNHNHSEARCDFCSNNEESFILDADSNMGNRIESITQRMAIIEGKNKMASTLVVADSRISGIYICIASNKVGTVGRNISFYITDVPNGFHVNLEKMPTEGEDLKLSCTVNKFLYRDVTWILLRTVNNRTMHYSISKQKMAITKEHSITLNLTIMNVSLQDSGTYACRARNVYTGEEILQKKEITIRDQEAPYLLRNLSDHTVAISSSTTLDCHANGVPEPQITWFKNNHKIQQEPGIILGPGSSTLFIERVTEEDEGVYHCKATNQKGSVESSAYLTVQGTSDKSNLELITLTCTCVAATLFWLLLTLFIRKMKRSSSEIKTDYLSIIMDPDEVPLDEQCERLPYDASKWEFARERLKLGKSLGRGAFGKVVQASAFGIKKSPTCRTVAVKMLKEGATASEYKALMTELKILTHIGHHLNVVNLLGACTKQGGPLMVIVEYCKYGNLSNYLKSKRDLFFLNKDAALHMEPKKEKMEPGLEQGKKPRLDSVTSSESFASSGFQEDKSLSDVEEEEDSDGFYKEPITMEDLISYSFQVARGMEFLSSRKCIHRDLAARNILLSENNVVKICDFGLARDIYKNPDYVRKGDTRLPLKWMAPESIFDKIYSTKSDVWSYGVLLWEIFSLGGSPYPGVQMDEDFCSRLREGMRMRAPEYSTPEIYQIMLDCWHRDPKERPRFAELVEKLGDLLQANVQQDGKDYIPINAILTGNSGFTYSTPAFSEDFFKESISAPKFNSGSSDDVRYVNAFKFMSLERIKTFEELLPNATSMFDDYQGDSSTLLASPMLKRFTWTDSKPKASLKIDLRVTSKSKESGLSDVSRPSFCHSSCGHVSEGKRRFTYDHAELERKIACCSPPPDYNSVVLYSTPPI

- Kd: 0.1 nM
Substance: VEGFA (from UniProt P15692)
